Key:
Experiment in all cases: cytokine release
[1] = target: T1, hCMV pp65 peptide on HLA-DRB1*07:01 (human)
T1 peptide: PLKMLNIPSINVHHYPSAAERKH

[2] = target: T2, NY-ESO-1 peptide on HLA-DRB1*04:01 (human)
T2 peptide: CFLPVFLAQPPSGQRR

[3] = target: NY-ESO-1 peptide on HLA-DRB1*04:01 (human); remark: listed apart in the source
[4] = target: NY-ESO-1 peptide on HLA-DRB1*11:01 (human)
[5] = target: NY-ESO-1 peptide on HLA-DRB1*16:01 (human)
[6] = target: T3, NY-ESO-1 peptide on HLA-DRB5*02:02 (human)
T3 peptide: SGNILTIRLTAADHRQLQL

[7] = target: T4, TPTE peptide on HLA-B*35:01 (human)
T4 peptide: YPSDFAVEI

[8] = target: T5, TPTE peptide on HLA-DRB4*01:01 (human)
T5 peptide: NWNLPPRRILFIKHFIIYS

[9] = target: T6, TPTE peptide on HLA-DRB1*14:01 (human)
T6 peptide: KHFIIYSIPRYVRDLKIQI

[10] = target: T7, TPTE peptide on HLA-DRB1*14:01 (human)
T7 peptide: SPISESVLARLSKFEVEDA

[11] = target: T8, TPTE peptide on HLA-DRB1*07:01 (human)
T8 peptide: ILADLIFTDSKLYIPLEYR

[12] = target: T9, TPTE peptide on HLA-DRB1*14:01 (human)
T9 peptide: WLHTSFIENNRLYLPKNEL

[13] = target: T10, TPTE peptide on HLA-DRB5*02:02 (human)
T10 peptide: IFFDIKLLRNIPRWTHLLR

[14] = target: T11, TPTE peptide on HLA-DRB3*03:01 (human)
T11 peptide: IKLLRNIPRWTHLLR

[15] = target: T12, TPTE peptide on HLA-DRB5*02:02 (human)
T12 peptide: KLIRRRVSENKRRYT

[16] = target: T13, TPTE peptide on HLA-DRB1*16:01 (human)
T13 peptide: NHYRVYNLCSERAYD

[17] = target: T14, TPTE peptide on HLA-DRB1*13:01 (human)
T14 peptide: RFLDKKHRNHYRVYN

[18] = target: T15, TPTE peptide on HLA-DRB1*15:01 (human)
T15 peptide: ILFIKHFIIYSIPRY

[19] = target: T16, TPTE peptide on HLA-DRB1*15:01 (human)
T16 peptide: YVAYFAQVKHLYNWNLPPR

[20] = target: T17, TPTE peptide on HLA-DRB1*13:01 (human)
T17 peptide: KLIRRRVSENKRRYT

B1: TCRCD4-CMV#1 (TCR, V domains shown)
Valpha: KQEVTQIPAALSVPEGENLVLNCSFTDSAIYNLQWFRQDPGKGLTSLLLIQSSQREQTSGRLNASLDKSSGRSTLYIAASQPGDSATYLCAVKDNDMRFGAGTRLTVKP
Vbeta: DTAVSQTPKYLVTQMGNDKSIKCEQNLGHDTMYWYKQDSKKFLKIMFSYNNKELIINETVPNRFSPKSPDKAHLNLHINSLELGDSAVYFCASSQEKRGAFFGQGTRLTVV
binding result [1]: recognises

B2: TCRCD4-NY#1 (TCR, V domains shown)
Valpha: GIQVEQSPPDLILQEGANSTLRCNFSDSVNNLQWFHQNPWGQLINLFYIPSGTKQNGRLSATTVATERYSLLYISSSQTTDSGVYFCAVNDYKLSFGAGTTVTVRA
Vbeta: DSGVTQTPKHLITATGQRVTLRCSPRSGDLSVYWYQQSLDQGLQFLIQYYNGEERAKGNILERFSAQQFPDLHSELNLSSLELGDSALYFCASSPGVSGTTEAFFGQGTRLTVV
binding result [2]: recognises

B3: TCRCD4-NY#3 (TCR, V domains shown)
Valpha: QKEVEQDPGPLSVPEGAIVSLNCTYSNSAFQYFMWYRQYSRKGPELLMYTYSSGNKEDGRFTAQVDKSSKYISLFIRDSQPSDSATYLCAMSKGAQKLVFGQGTRLTINP
Vbeta: EAGVAQSPRYKIIEKRQSVAFWCNPISGHATLYWYQQILGQGPKLLIQFQNNGVVDDSQLPKDRFSAERLKGVDSTLKIQPAKLEDSAVYLCASSLGDSNTGELFFGEGSRLTVL
binding result [3]: recognises

B4: TCRCD4-NY#7 (TCR, V domains shown)
Valpha: AQSVTQLDSQVPVFEEAPVELRCNYSSSVSVYLFWYVQYPNQGLQLLLKYLSGSTLVKGINGFEAEFNKSQTSFHLRKPSVHISDTAEYFCAVSKSGGYQKVTFGTGTKLQVIP
Vbeta: GAVVSQHPSWVICKSGTSVKIECRSLDFQATTMFWYRQFPKQSLMLMATSNEGSKATYEQGVEKDKFLINHASLTLSTLTVTSAHPEDSSFYICSAAPGLAGGQGGSQYFGPGTRLLVL
binding result [4]: recognises | binding result [5]: recognises

B5: TCRCD4-NY#13 (TCR, V domains shown)
Valpha: KQEVTQIPAALSVPEGENLVLNCSFTDSAIYNLQWFRQDPGKGLTSLLLIQSSQREQTSGRLNASLDKSSGRSTLYIAASQPGDSATYLCAVPTDSWGKLQFGAGTQVVVTP
Vbeta: DTGVSQDPRHKITKRGQNVTFRCDPISEHNRLYWYRQTLGQGPEFLTYFQNEAQLEKSRLLSDRFSAERPKGSFSTLEIQRTEQGDSAMYLCASSSKLTGIPEGTDTQYFGPGTRLTVL
binding result [6]: recognises

B6: TCRCD8-TPT#3 (TCR, V domains shown)
Valpha: TQLLEQSPQFLSIQEGENLTVYCNSSSVFSSLQWYRQEPGEGPVLLVTVVTGGEVKKLKRLTFQFGDARKDSSLHITAAQPGDTGLYLCAGAQGQKLLFARGTMLKVDL
Vbeta: DTGVSQNPRHKITKRGQNVTFRCDPISEHNRLYWYRQTLGQGPEFLTYFQNEAQLEKSRLLSDRFSAERPKGSFSTLEIQRTEQGDSAMYLCASSHLAGGNTGELFFGEGSRLTVL
binding result [7]: recognises

B7: TCRCD4-TPT#4 (TCR, V domains shown)
Valpha: AQKITQTQPGMFVQEKEAVTLDCTYDTSDPSYGLFWYKQPSSGEMIFLIYQGSYDQQNATEGRYSLNFQKARKSANLVISASQLGDSAMYFCATASNFGNEKLTFGTGTRLTIIP
Vbeta: SAVISQKPSRDICQRGTSLTIQCQVDSQVTMMFWYRQQPGQSLTLIATANQGSEATYESGFVIDKFPISRPNLTFSTLTVSNMSPEDSSIYLCSVDRDREDGYTFGSGTRLTVV
binding result [8]: recognises

B8: TCRCD4-TPT#5 (TCR, V domains shown)
Valpha: AQTVTQSQPEMSVQEAETVTLSCTYDTSESDYYLFWYKQPPSRQMILVIRQEAYKQQNATENRFSVNFQKAAKSFSLKISDSQLGDAAMYFCAYSRTSGTYKYIFGTGTRLKVLA
Vbeta: ETGVTQTPRHLVMGMTNKKSLKCEQHLGHNAMYWYKQSAKKPLELMFVYNFKEQTENNSVPSRFSPECPNSSHLFLHLHTLQPEDSALYLCASSQEISGSSYEQYFGPGTRLTVT
binding result [9]: recognises

B9: TCRCD4-TPT#6 (TCR, V domains shown)
Valpha: QKEVEQDPGPLSVPEGAIVSLNCTYSNSAFQYFMWYRQYSRKGPELLMYTYSSGNKEDGRFTAQVDKSSKYISLFIRDSQPSDSATYLCAMSAVSFGNVLHCGSGTQVIVLP
Vbeta: ETGVTQSPTHLIKTRGQQVTLRCSSQSGHNTVSWYQQALGQGPQFIFQYYREEENGRGNFPPRFSGLQFPNYSSELNVNALELDDSALYLCASSFGENTIYFGEGSWLTVV
binding result [10]: recognises

B10: TCRCD4-TPT#11 (TCR, V domains shown)
Valpha: SQQGEEDPQALSIQEGENATMNCSYKTSINNLQWYRQNSGRGLVHLILIRSNEREKHSGRLRVTLDTSKKSSSLLITASRAADTASYFCAGYNTNAGKSTFGDGTTLTVKP
Vbeta: NAGVTQTPKFRILKIGQSMTLQCAQDMNHNYMYWYRQDPGMGLKLIYYSVGAGITDKGEVPNGYNVSRSTTEDFPLRLELAAPSQTSVYFCASSFGQVWADTQYFGPGTRLTVL
binding result [11]: recognises

B11: TCRCD4-TPT#13 (TCR, V domains shown)
Valpha: EDQVTQSPEALRLQEGESSSLNCSYTVSGLRGLFWYRQHPGKGPEFLFTLYSAGEEKEKERLKATLTKKESFLHITAPKPEDSATYLCAVQASNSGNTPLVFGKGTRLSVIA
Vbeta: DGGITQSPKYLFRKEGQNVTLSCEQNLNHDAMYWYRQDPGQGLRLIYYSQIVNDFQKGDIAEGYSVSREKKESFPLTVTSAQKNPTAFYLCASSAPHQRGTNEQFFGPGTRLTVL
binding result [12]: recognises

B12: TCRCD4-TPT#17 (TCR, V domains shown)
Valpha: DQQVKQNSPSLSVQEGRISILNCDYTNSMFDYFLWYKKYPAEGPTFLISISSIKDKNEDGRFTVFLNKSAKHLSLHIVPSQPGDSAVYFCAASPNTGNQFYFGTGTSLTVIP
Vbeta: GAGVSQSPSNKVTEKGKDVELRCDPISGHTALYWYRQSLGQGLEFLIYFQGNSAPDKSGLPSDRFSAERTGGSVSTLTIQRTQQEDSAVYLCASSLTGGPYEQYFGPGTRLTVT
binding result [13]: recognises

B13: TCRCD4-TPT#27 (TCR, V domains shown)
Valpha: GENVEQHPSTLSVQEGDSAVIKCTYSDSASNYFPWYKQELGKRPQLIIDIRSNVGEKKDQRIAVTLNKTAKHFSLHITETQPEDSAVYFCAALYSGGGADGLTFGKGTHLIIQP
Vbeta: DGGITQSPKYLFRKEGQNVTLSCEQNLNHDAMYWYRQDPGQGLRLIYYSQIVNDFQKGDIAEGYSVSREKKESFPLTVTSAQKNPTAFYLCASSIGGGVNTEAFFGQGTRLTVV
binding result [14]: recognises

B14: TCRCD4-TPT#33 (TCR, V domains shown)
Valpha: DQQVKQNSPSLSVQEGRISILNCDYTNSMFDYFLWYKKYPAEGPTFLISISSIKDKNEDGRFTVFLNKSAKHLSLHIVPSQPGDSAVYFCAARSYGGSQGNLIFGKGTKLSVKP
Vbeta: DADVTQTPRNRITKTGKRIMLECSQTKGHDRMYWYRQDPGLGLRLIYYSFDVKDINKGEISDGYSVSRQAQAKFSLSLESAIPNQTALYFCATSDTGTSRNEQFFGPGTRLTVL
binding result [15]: recognises

B15: TCRCD4-TPT#38 (TCR, V domains shown)
Valpha: ELKVEQNPLFLSMQEGKNYTIYCNYSTTSDRLYWYRQDPGKSLESLFVLLSNGAVKQEGRLMASLDTKARLSTLHITAAVHDLSATYFCAVGFRGSTLGRLYFGRGTQLTVWP
Vbeta: DAGVTQSPTHLIKTRGQHVTLRCSPISGHKSVSWYQQVLGQGPQFIFQYYEKEERGRGNFPDRFSARQFPNYSSELNVNALLLGDSALYLCASSWGQGNEKLFFGSGTQLSVL
binding result [16]: recognises

B16: TCRCD4-TPT#42 (TCR, V domains shown)
Valpha: GQQVMQIPQYQHVQEGEDFTTYCNSSTTLSNIQWYKQRPGGHPVFLIQLVKSGEVKKQKRLTFQFGEAKKNSSLHITATQTTDVGTYFCAGSTGGGNKLTFGTGTQLKVEL
Vbeta: GAGVSQSPRYKVAKRGQDVALRCDPISGHVSLFWYQQALGQGPEFLTYFQNEAQLDKSGLPSDRFFAERPEGSVSTLKIQRTQQEDSAVYLCASSDFYEQYFGPGTRLTVT
binding result [17]: recognises

B17: TCRCD4-TPT#45 (TCR, V domains shown)
Valpha: GESVGLHLPTLSVQEGDNSIINCAYSNSASDYFIWYKQESGKGPQFIIDIRSNMDKRQGQRVTVLLNKTVKHLSLQIAATQPGDSAVYFCAETRQGGKLIFGQGTELSVKP
Vbeta: GAVVSQHPSWVICKSGTSVKIECRSLDFQATTMFWYRQFPKQSLMLMATSNEGSKATYEQGVEKDKFLINHASLTLSTLTVTSAHPEDSSFYICSAPPGVTVRAYGYTFGSGTRLTVV
binding result [18]: recognises

B18: TCRCD4-TPT#49 (TCR, V domains shown)
Valpha: AQTVTQSQPEMSVQEAETVTLSCTYDTSENNYYLFWYKQPPSRQMILVIRQEAYKQQNATENRFSVNFQKAAKSFSLKISDSQLGDTAMYFCAFMKNTGNQFYFGTGTSLTVIP
Vbeta: DGGITQSPKYLFRKEGQNVTLSCEQNLNHDAMYWYRQDPGQGLRLIYYSQIVNDFQKGDIAEGYSVSREKKESFPLTVTSAQKNPTAFYLCASRRLDGLGIGELFFGEGSRLTVL
binding result [19]: recognises

B19: TCRCD4-TPT#51 (TCR, V domains shown)
Valpha: GENVEQHPSTLSVQEGDSAVIKCTYSDSASNYFPWYKQELGKRPQLIIDIRSNVGEKKDQRIAVTLNKTAKHFSLHITETQPEDSAVYFCAALSGGSNYKLTFGKGTLLTVNP
Vbeta: EAGVTQFPSHSVIEKGQTVTLRCDPISGHDNLYWYRRVMGKEIKFLLHFVKESKQDESGMPNNRFLAERTGGTYSTLKVQPAELEDSGVYFCASSQQENTEAFFGQGTRLTVV
binding result [20]: recognises

Source: patent publication US20190060430A1 (published 2019)
